Here are results for 5 substances from article PMC12360793.

The target in test [1] is dimeric P.dav ACE2 ectodomain (cryo-EM sample with MOW15–22 RBD) (P.dav (a Pteronotus bat)). Nature of the test: cryo-EM structure.
Test [2] addresses biotinylated monomeric MOW15–22 RBD (MOW15–22 (bat MERSr-CoV sampled in Pipistrellus nathusii)). Nature of the test: BLI. In general terms: In BLI a coated tip is dipped into the sample, and binding shifts an interference pattern.
The target in test [3] is biotinylated monomeric PnNL2018B RBD (PnNL2018B (bat MERSr-CoV sampled in Pipistrellus nathusii)). Nature of the test: BLI.

In the case of “MOW15–22 RBD (cryo-EM sample with P.dav ACE2) (from UniProt Q56H28 360-611) (domain or fragment)”, in test [1], the stoichiometry N (RBD per ACE2 dimer) was < 1.

Broadly, the Kd is a measure of binding affinity in units of concentration. Read a high Kd as a looser complex. “dimeric P.dav ACE2 ectodomain (residues 17–728, avi-His8) (from UniProt Q56H28 17-728) (domain or fragment)”: the Kd in test [2] stood at 6.38 nM.

Regarding “dimeric P.nat ACE2 ectodomain (residues 17–729, avi-His8) (domain or fragment)”, the Kd in test [3] is 897 nM; in test [2], 12.8 nM.

In test [2], “monomeric P.dav ACE2 ectodomain (residues 17–613, avi-His8) (from UniProt Q56H28 17-613) (domain or fragment)” showed a Kd of 1070 nM.

Regarding “monomeric P.nat ACE2 ectodomain (residues 17–614, avi-His8) (domain or fragment)”, the Kd in test [2] was 1450 nM.
